# Test results: article PMC6689063
# B1: ΔS1 PdAztD (H124A/H167A/H218A) (natural protein)
# chain: QDHDHDHEDVTLYRVFVGDHEKGQVTAFDLAEPDHRWTFPTTGQVKLYSVAGGAVVAAVQSDADTVQFIRSGISFHDHGDHRDIEVGDPAAIDASLTGPRPFALVEHDGKVVLNYDQGGYAEILDGHALAEGKAEPGRFPQARAHAGFVAPLGGNWLSTVASDEKVEGDASVPRLGLQAFDAEGNPAGNLATCTGIAGEAFSGAYLAAGCKEGVLTVKAGANGSEYKLLPYPADLPQGVTTGTLLGSTGIQVFLGNYGPDGLVVIDPVDEPHYRYIKLPFRRVDFALDPAKPSTGYVLTEDGSLHRIDLLKAEIVASAKVTEPYSMDGHWNDPRPRIAMAGDEIVVTDPNAGLVRRIATEDLSERGTVPVEGKPYNIAVTGGSGVTH
# Target: T1, AztC from Paracoccus denitrificans (WT PdAztC), solute binding protein of the AztABC zinc transporter (Paracoccus denitrificans PD1222) (UniProt A1B2F3)
# T1 sequence: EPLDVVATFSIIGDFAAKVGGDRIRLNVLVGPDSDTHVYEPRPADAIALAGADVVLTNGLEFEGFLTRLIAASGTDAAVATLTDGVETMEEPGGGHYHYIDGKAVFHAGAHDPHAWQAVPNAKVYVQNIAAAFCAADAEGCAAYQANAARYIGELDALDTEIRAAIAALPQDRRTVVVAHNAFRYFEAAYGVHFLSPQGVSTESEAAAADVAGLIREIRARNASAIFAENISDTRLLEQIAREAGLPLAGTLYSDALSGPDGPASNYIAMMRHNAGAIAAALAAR
binder,measurement,value
B1,"zinc transferred to AztC after incubation of 100 μM each protein with 1 mM EDTA, anion exchange chromatography and zinc quantitation by ICP-OES (equivalent of zinc)",1
